Reference: PMC5431883, “Enhancing Specific Disruption of Intracellular Protein Complexes by Hydrocarbon Stapled Peptides Using Lipid Based Delivery” (Scientific Reports, 2017)
Positions of bridges follow the written chain, without caps; N, C: chain ends. Non-standard residues stand in square brackets, D forms with d. R8 = C=CCCCCCC[C@@](C)(N)C(=O)O; S5 = C=CCCC[C@](C)(N)C(=O)O; Ahx = NCCCCCC(=O)O

Key:
Mdm2 (1-125) [1] = target: T1, Mdm2 (1-125) (UniProt Q00987 1-125); experiment: fluorescence polarisation; competitive fluorescence anisotropy (FA) assay on Mdm2 (1-125); Kd determined from the competition; details in the supplementary information; conditions: both partners purified
T1 construct: Mdm2, residues 1-125; source: expressed and purified (host and procedure in the supplementary information)
T1 sequence (Q00987 1-125): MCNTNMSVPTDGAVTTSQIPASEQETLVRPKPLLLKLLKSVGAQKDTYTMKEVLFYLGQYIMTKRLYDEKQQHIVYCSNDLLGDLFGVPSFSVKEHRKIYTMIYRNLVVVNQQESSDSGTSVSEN

Mdm2 (1-125) [2] = target: T1, Mdm2 (1-125); experiment: cell-based or functional assay
Mdm2 joined to HaloTag [3] = target: T2, Mdm2 joined to HaloTag (UniProt Q00987 1-491, HaloTag covalently labelled with a cell permeable fluorogenic substrate); experiment: FRET or BRET; nanoBRET in live HEK293 cells transfected with p53-nanoLUC and Mdm2-HaloTag; stapled peptide titrated (10 points), 0% FCS, signal after 4 hours; conditions: one partner purified
T2 construct: Mdm2 of the p53:Mdm2 NanoBRET System (Promega); Construct of a bought kit (Promega); source: HEK293, transiently transfected, in live cells
T2 sequence (Q00987 whole entry): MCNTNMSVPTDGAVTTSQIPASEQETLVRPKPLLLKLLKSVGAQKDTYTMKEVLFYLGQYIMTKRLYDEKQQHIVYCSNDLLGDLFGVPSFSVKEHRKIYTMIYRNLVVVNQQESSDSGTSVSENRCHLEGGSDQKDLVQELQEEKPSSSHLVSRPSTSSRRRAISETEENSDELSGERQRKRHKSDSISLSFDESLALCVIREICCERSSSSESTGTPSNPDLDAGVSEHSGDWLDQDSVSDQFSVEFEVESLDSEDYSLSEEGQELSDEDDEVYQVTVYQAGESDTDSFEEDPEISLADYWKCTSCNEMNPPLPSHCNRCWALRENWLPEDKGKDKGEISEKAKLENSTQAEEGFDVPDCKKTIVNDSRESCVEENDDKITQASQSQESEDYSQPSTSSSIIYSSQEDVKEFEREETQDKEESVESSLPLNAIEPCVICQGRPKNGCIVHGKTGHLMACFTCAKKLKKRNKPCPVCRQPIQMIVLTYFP

Mdm2 joined to HaloTag [4] = target: T2, Mdm2 joined to HaloTag; experiment: FRET or BRET; nanoBRET in live HEK293 cells transfected with p53-nanoLUC and Mdm2-HaloTag; stapled peptide titrated (10 points), 10% FCS, signal after 4 hours; conditions: one partner purified

Question: What does the source list for Ac-KK[Ahx]TSF[R8]EYWALL[S5]ENF-NH2 (staple 7-14) [VIP-82]?
Answer: Kd (Mdm2 (1-125) [1]): 24.4 ± 2.3 µM; EC50 of p53 activation, T22 p53 reporter cells (β-galactosidase), 0% FCS; blocks Mdm2:p53 (Mdm2 (1-125) [2]): 0.8 µM; EC50 of p53 activation, T22 p53 reporter cells (β-galactosidase), 10% FCS; blocks Mdm2:p53 (Mdm2 (1-125) [2]): 10 µM; IC50 (Mdm2 joined to HaloTag [3]): 3.9 ± 0.2 µM; IC50 (Mdm2 joined to HaloTag [4]): 17.5 ± 1.3 µM
